The text below walks through data of the supplement of paper PMC6757056.

To fix the notation:
B1: library; a variant is named by its letters at N, in order (parent)
chain: GCUGUCACCGGAAUACCAGCAUCGUCUUGAUGCCCUUGGAAGUCCGGUCUGAUGAGUCCNNNNNGGACGAAACAGC

Data set [1] covers variants of B1. The data set can be described thus: FACS-Seq fitted mean relative fluorescence mCherry/BFP without ligand (log10 relative fluorescence); higher = higher reporter protein expression. The settings on record: HEK293T, ligand present: no. A digest of the protocol:
(§1)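 With or without ligand for 48 h, enriched HEK293T libraries carrying a lentiviral ribozyme-switch mCherry reporter and EF1α-BFP were sorted into 6 mCherry/BFP bins. Bin genomic DNA was amplified by PCR, barcoded and sequenced on MiSeq. Fluorescence was taken from normal fits to the resulting bin counts. Each fitted mean of log10(mCherry/BFP) was scaled to five spiked-in control ribozymes.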

In data set [2] the parent is B1. The data set can be described thus: normalized RNA/DNA level with ligand (relative to sTRSVctl = 100) (log10 (% of sTRSVctl)); higher = less ribozyme self-cleavage, higher mRNA level. The settings on record: ligand concentration (+) RNA-Seq: 5 mM, HEK293T, reporter: mCherry (pCS4076), ligand present: yes. A digest of the protocol:
(§2)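 Library plasmids carrying ribozyme switches linked to mCherry, or to eGFP in some ligand experiments, were transfected into HEK293T at 4 µg per 6-well well, with any ligand added 1 h earlier. Seventy-two hours on, total RNA was extracted with EDTA and reverse-transcribed, amplified, barcoded and sequenced. RNA level was RNA over DNA reads normalized to a spiked-in non-cleaving sequence or to the top sequences, then scaled and log-transformed. The top set was 25 sequences, the transform was ×100 and log10, and sequences needed ≥100 DNA reads.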

Data set [3] covers variants of B1. As to the kind of experiment: normalized RNA/DNA level without ligand (relative to sTRSVctl = 100) (log10 (% of sTRSVctl)); higher = less ribozyme self-cleavage, higher mRNA level. Particulars: HEK293T, reporter: mCherry (pCS4076), ligand present: no. The method in brief: as §2
The variants in data set [4] derive from B1. As to the kind of experiment: FACS-Seq fitted mean relative fluorescence mCherry/BFP with ligand (log10 relative fluorescence); ligand concentration (+) FACS-Seq: 1 mM; higher = higher reporter protein expression. Particulars: HEK293T, ligand present: yes. A digest of the protocol: as §1

± gives the standard deviation of the averaged measurements.

In the case of CGACA, the “FACS-Seq fitted mean (log10)” value worked out at 0.409 ± 0.006 in data set [1] and 0.769 ± 0.0091 in data set [4]. The “normalized RNA/DNA level with ligand (log10)” value in data set [2] turned out to be 2.012 ± 0.02. Besides, the “normalized RNA/DNA level without ligand (log10)” value in data set [3] turned out to be 1.45 ± 0.061.
The corresponding values for CGACU are 0.265 ± 0.1, 0.5286 ± 0.0038, 2 ± 0.031 and 1.7 ± 0.14.
The corresponding values for UCGGU are 0.776 ± 0.2, 0.68 ± 0.021, 2.084 ± 0.0052 and 1.8 ± 0.16.
For UCGCA, the “FACS-Seq fitted mean (log10)” value in data set [1] was 0.556 ± 0.006; in data set [4], 0.806 ± 0.091. Moreover, the “normalized RNA/DNA level with ligand (log10)” value in data set [2] worked out at 1.96 ± 0.055. Also, in data set [3], the “normalized RNA/DNA level without ligand (log10)” value was 1.57 ± 0.12.
The corresponding values for UCGCC are 1.03 ± 0.1, 1.06 ± 0.095, 2 ± 0.095 and 1.872 ± 0.014.
The corresponding values for UCGCU are 0.4314 ± 0.00049, 0.533 ± 0.055, 2.03 ± 0.11 and 1.891 ± 0.0058.
The corresponding values for CCCAU are 0.699 ± 0.08, 0.822 ± 0.04, 1.97 ± 0.028 and 1.901 ± 0.019.
Turning to CCGGU, the results for the “FACS-Seq fitted mean (log10)” value in data set [1] and in data set [4] were 0.937 ± 0.27 and 0.944 ± 0.14, respectively. Moreover, in data set [2], the “normalized RNA/DNA level with ligand (log10)” value came out at 1.97 ± 0.064. For the same variant, the “normalized RNA/DNA level without ligand (log10)” value in data set [3] came to 1.84 ± 0.064.
The corresponding values for CCGGC are 0.695 ± 0.065, 0.721 ± 0.011, 2 ± 0.13 and 1.97 ± 0.044.
The corresponding values for CCGGA are 0.978 ± 0.089, 1.05 ± 0.15, 2.08 ± 0.027 and 1.9 ± 0.044.
The corresponding values for AGAGG are 0.93 ± 0.038, 0.966 ± 0.08, 1.956 ± 0.018 and 1.8 ± 0.11.
Regarding AGAGA, the entries for the “FACS-Seq fitted mean (log10)” value in data set [1] and in data set [4] were 0.056 ± 0.00013 and 0.603 ± 0.011, respectively. The “normalized RNA/DNA level with ligand (log10)” value in data set [2] came to 1.952 ± 0.0099. For the same variant, the “normalized RNA/DNA level without ligand (log10)” value in data set [3] amounted to 1.28 ± 0.092.
AGAGU: the entries for the “FACS-Seq fitted mean (log10)” value in data set [1] and in data set [4] were 0.387 ± 0.049 and 0.442 ± 0.022, respectively. In addition, the “normalized RNA/DNA level with ligand (log10)” value in data set [2] worked out at 2.006 ± 0.008. Also, the “normalized RNA/DNA level without ligand (log10)” value in data set [3] came out at 1.58 ± 0.045.
The corresponding values for AGAGC are 0.629 ± 0.05, 0.813 ± 0.051, 1.89 ± 0.12 and 1.81 ± 0.027.
The corresponding values for CGAUU are 0.31 ± 0.2, 0.579 ± 0.022, 1.98 ± 0.13 and 1.51 ± 0.15.
The corresponding values for CGAUC are 0.533 ± 0.1, 0.495 ± 0.065, 1.927 ± 0.016 and 1.84 ± 0.089.
As for CGAUA, the “FACS-Seq fitted mean (log10)” value in data set [1] came out at 0.099 ± 0.017; in data set [4], 0.491 ± 0.0076. Besides, the “normalized RNA/DNA level with ligand (log10)” value in data set [2] is 1.946 ± 0.014. Also, the “normalized RNA/DNA level without ligand (log10)” value in data set [3] is 1.21 ± 0.36.
The corresponding values for ACUUA are 0.5998 ± 0.0045, 0.66 ± 0.015, 2.05 ± 0.037 and 1.78 ± 0.032.
